The record followed here is publication PMC11662940 (Nucleic Acids Research, 2024).

The target of the assay is T1, ScUba4 (Saccharomyces cerevisiae Uba4) (S. cerevisiae, UniProt P38820 1-440).
T1 sequence: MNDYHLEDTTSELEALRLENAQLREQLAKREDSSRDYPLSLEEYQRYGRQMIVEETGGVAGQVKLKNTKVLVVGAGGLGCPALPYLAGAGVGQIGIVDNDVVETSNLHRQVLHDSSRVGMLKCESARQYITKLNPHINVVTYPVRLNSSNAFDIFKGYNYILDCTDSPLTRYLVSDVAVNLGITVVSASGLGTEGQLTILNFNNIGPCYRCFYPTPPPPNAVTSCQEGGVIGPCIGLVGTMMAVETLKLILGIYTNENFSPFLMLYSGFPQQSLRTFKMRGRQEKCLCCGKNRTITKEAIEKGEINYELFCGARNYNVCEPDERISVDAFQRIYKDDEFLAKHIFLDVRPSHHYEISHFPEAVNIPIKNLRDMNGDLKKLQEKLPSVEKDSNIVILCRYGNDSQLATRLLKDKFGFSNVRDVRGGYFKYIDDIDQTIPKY
The assay is described as follows: SEC. In general terms: In gel filtration, larger molecules generally elute earlier.

B1: Thiocarboxylated ScUrm1 (natural protein)
chain: MVNVKVEFLGGLDAIFGKQRVHKIKMDKEDPVTVGDLIDHIVSTMINNPNDVSIFIEDDSIRPGIITLINDTDWELEGEKDYILEDGDIISFTSTLHGG
modifications: thiocarboxylate at the C-terminus
For B1, the binding result was “binds”.
